B1: Interleukin-1 receptor-associated kinase 1 (Mus musculus), Q62406 (parent)
chain: MAGGPGPGEPVVPGAQHFLYEVPPWVMCRFYKVMDALEPADWCQFAALIVRDQTELRLCERSEQRTASVLWPWINRNARVADLVHILTHLQLLRARDIITAWHPPAPVVPPSTAAPRPSSISAGSEAGDWSPRKLQSSASTFLSPAFPGSQTHSESELLQVPLPVSLGPPLPSSAPSSTKSSPESPVSGLQRAHPSPFCWPFCEISQGTCNFSEELRIGEGGFGCVYRAVMRNTTYAVKRLKEEADLEWTMVKQSFLTEVEQLSRFRHPNIVDFAGYCAESGLYCLVYGFLPNGSLEDQLHLQTQACSPLSWPQRLDILLGTARAIQFLHQDSPSLIHGDIKSSNVLLDERLMPKLGDFGLARFSRFAGAKASQSSTVARTSTVRGTLAYLPEEYIKTGRLAVDTDTFSFGVVILETLAGQRAVRTQGAKTKYLKDLIEDEAEEAGVTLKSTQPTLWVGVATDAWAAPIAAQIYKKHLDSRPGPCPPQLGLALAQLACCCMHRRAKKRPPMTQVYKRLEGLQAGPPWELEVAGHGSPSPQENSYMSTTGSAQSGDEPWQPLVVTTRAPAQAAQQLQRSPNQPVESDESVPGLSATLHSWHLTPGSHPSPASFREASCTQGGTTRESSVRSSPGFQPTTMEGSPTGSSSLLSSEPPQIIINPARQKMVQKLALYEEGVLDSLQLLSSGFFPGLDLEPEKSQGPEESDEFQS

The test covers variants of B1. The following applies: with tolip_mouse Tollip.
As to T66A, the “effect of a mutation on the interaction” value is recorded as “decreasing interaction”.

(Values after IntAct's records for PubMed 10854325.)
